Measurements taken from patent US8257928B2, “Methods for predicting and treating tumors resistant to drug, immunotherapy and radiation” (The Regents of the University of California, priority 2008, dated 2012).
Entries after “also recorded” stand apart in the source; their conditions may differ.

B1: TRAIL: recombinant, purified human tumor necrosis factor-related apoptosis-inducing ligand (TRAIL) peptides (BIOMOL) (protein, UniProt P50591 1-281, looked up)
Tumor necrosis factor ligand …: MAMMEVQGGPSLGQTCVLIVIFTVLLQSLCVAVTYVYFTNELKQMQDKYSKSGIACFLKEDDSYWDPNDEESMNSPCWQVKWQLRQLVRKMILRTSEETISTVQEKQQNISPLVRERGPQRVAAHITGTRGRSNTLSSPNSKNEKALGRKINSWESSRSGHSFLSNLHLRNGELVIHEKGFYYIYSQTYFRFQEEIKENTKNDKQMVQYIYKYTSYPDPILLMKSARNSCWSKDAEYGLYSIYQGGIFELKENDRIFVSVTNEHLIDMDHEASFFGAFLVG

Tested on: HMT3522 T4-2 cells
Test: Percent cell death in 2D monolayer, 3D rBM and reverted cultures (active caspase 3)
Format: cell-based, human
Source text: The oligonucleotides specifying the small hairpin RNAs (shRNAs) were subcloned from pSilencer-H1 into pLZRS-MFG-CMV-Neo-U6, a recombinant self-inactivating retroviral vector constructed from the backbone of an MFG provirus (Proc. Natl. Acad. Sci. USA 85:6460-6464 (1988); Proc. Natl. Acad. Sci. USA 90:3539-3543 (1993)), which directs the expression of shRNA under the control of the U6 promoter. Amphotropic retrovirus was produced in Phoenix ampho cells (provided by Professor G. Nolan, Stanford Medical Center) with packaging vectors pCgp and pVSVG to boost viral titer. S1 cells or T4-2 cells, maintained in monolayer cultures, were then spin infected with retrovirus carrying the various RNAi constructs and infected cell populations were selected using 300 μg/ml G418 (Invitrogen).
Non-neoplastic HMT3522 S1 breast epithelial cells or neoplastic HMT3522 T4-2 cells were embedded (8.5×10^5/ml) within reconstituted basement membrane (rBM) gel (Matrigcl, BD Biosciences) in chamber slides (Lab-Tek chamber slides, Nunc) according to the procedures described in U.S. Pat. No. 6,123,941 and Nat. Method. 4:359-365 (2007). […] Phenotypic reversion of HMT3522 T4-2 cells in three dimensional rBM cultures was performed using an epidermal growth factor receptor (EGFR) specific tyrosine kinase inhibitor tyrphostin AG 1478 (100 nM) (Calbiochem), as previously described (Proc. Natl. Acad. Sci. USA 95:14821-14826 (1998))
Apoptotic cell death of the breast epithelial cells cultured in three dimensional rBM was initiated by treatment with recombinant, purified human tumor necrosis factor-related apoptosis-inducing ligand (TRAIL) peptides (BIOMOL) or Paclitaxel (Sigma-Aldrich) as described (Cancer Cell 2:205-216 (2002)). DNA damage-induced cell death was initiated by ionizing radiation (IR) using a Mark I Cesium 137 irradiator (JL Shepherd & Associates).
Percent cell death induced by TRAIL or Paclitaxel was quantified using detection of active caspase 3 (Cell Signaling) by indirect immunofluorescence as described (J. Cell Biol. 163:1397-1407 (2003)). Percent cell death induced by IR was quantified using Live/Dead Viability/Cytotoxicity Assay (Molecular Probes). For both methods, cells were counterstained with 4′,6-diamidino-2-phenylindole (DAPI) to label cell nuclei present at different focal planes in the 3D architectures. Percent death was calculated as cells positive for ethidium bromide or active caspase 3 expressed as a percentage of the total number of cells scored by the nuclear staining.
Percent cell death induced by TRAIL was quantified using detection of active caspasc 3 as described in Example 4.

Molecule	sensitivity to the TRAIL treatment of N-CoR2-overexpressed cells (HDAC3 simultaneously downregulated by retrovirus-mediated RNAi)	death sensitivity of cells cultured in 3D rBM (3D rBM disorganized aggregates vs 2D monolayer, TRAIL 1.0 μg/mL, Paclitaxel 20 μM)	death sensitivity of structurally reverted spheroids (reverted with tyrphostin AG 1478 in 3D rBM, TRAIL 1.0 μg/mL, Paclitaxel 20 μM)	death sensitivity of cells with stable overexpression of wild-type N-CoR2 (vs vector control cells, 3D rBM)
HDAC3 shRNA: retrovirally expressed small hairpin RNA, siRNA sequence 5′-AAGATGCTGAACCATGCACCT-3′ (SEQ ID NO:2) for HDAC3	restored to an extent comparable to that of vehicle-treated cells	–	–	–
B1	–	decreased sensitivity	further decrease in the sensitivity	markedly resistant; also recorded: less sensitive
